Experimental data published in the nanobody polyreactivity screen of Harvey et al. (2022).

Test: yeast display, Sf9 membrane polyspecificity reagent, FACS + sequencing; frameworks hold sequencing errors
Procedure, shortened: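 Nanobodies came from a synthetic yeast display library in Saccharomyces cerevisiae BJ5465, induced with galactose for 36–48 hours and stained for 1 hour at 4 °C with 10% biotinylated, detergent-solubilized Sf9 membrane reagent. Cells were enriched on streptavidin microbeads and then FACS-sorted, with low and high (top ~1%) gates set on anti-HA fluorescence for expression and streptavidin fluorescence for reagent binding. Each polyreactivity label reflects the gate a clone came from. Genes were amplified by colony PCR, sequenced by MiSeq 2 × 250 and filtered by CDR length.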

Sequence	polyreactivity (PSR sort gate)
QVQLVESGGGLVQAGGSLRLSCAASGFTFYGNAMGWYRQAPGKERELVAAISLSDGYADSVKGRFTISRDNAKNTVYLLMNSLKPEDTAVYYCAKDRTDSKRREHDYWGQGTQVTVSS	low polyreactivity
QVQLVESGGGLVQAGGSLRLSCAASGFTFYGYAMGWYRQAPGKDRELVARITVRGSTTYYADSVKGRFTISRDNAKNTVYLQMNSLKPEDTAFYYCNASWVYSRFRPLDYDLDYWGQGTQVTVSS	low polyreactivity
QVQLVESGGGLVQAGGSLRLSCAASGFTFYGYAMGWYRQAPGKERELVAAITSGGSTNYADSVKGRFTISRDNAKNTVYLQMNSLKPEDTAVYYCAASPSYWYLYVNYSYDYWGQGTQVTVSS	high polyreactivity
QVQLVESGGGLVQAGGSLRLSCAASGFTFYGYGMGWYRPAPGKERELVAVITSGGSTKYADSVKGRFTISRDNAKNTVYLQMNSLKPEDTAVYYCNVVGGRYLYSAYDYWGQGTQVTVSS	low polyreactivity
QVQLVESGGGLVQAGGSLRLSCAASGFTFYIYAMGWYRPAPRNERELLAAITGSGGRTYYADSVKGRFTISRDYAKNTVYLQMNRLKPEETAVYYSNVLLQRVYGTEPSFDYWGQGTQVTVSS	high polyreactivity
QVQLVESGGGLVQAGGSLRLSCAASGFTFYIYGMGWYRPAPGKERELVAAITWSGGRTYYADSVKGRFTISRDNAKNTVYLHMNSLKPEDTAVYYCAASYPGLSYHKYEYWGHGTQVTVSS	high polyreactivity
QVQLVESGGGLVQAGGSLRLSCAASGFTFYKNTMGWYRQAPAKARELVAAISSSGSSTYYADSVKGRFTISRDYAKNTVYLQMNSLKPEDTAVYYCAAGRFAYHDDYWGQGTQVTVSS	high polyreactivity
QVQLVESGGGLVQAGGSLRLSCAASGFTFYKNTMGWYRQAPGKERELVAAISGSGGRTYYADSVKGRFTISRDNAKNTVYLQMNSLKPEDTAVYYCNAAARYRWQYDYSLYEYGHWGQGTQVTVSS	high polyreactivity
QVQLVESGGGLVQAGGSLRLSCAASGFTFYKYAMGWYRQAPGKEREFVAAISSSGDSTYYADSVKGRFTISRDNAKNTVYLQMNSLKPEDTAVYYCAARRRGTSTTWGQGTQVTVSS	high polyreactivity
QVQLVESGGGLVQAGGSLRLSCAASGFTFYKYAMGWYRQAPGKERELVAGISSRGTRTYYADSVKGRFTISRDNAKNTVYLQMNSLKPEDTAVYDCAADSNTVNYDYWGQGTQVTVSS	high polyreactivity
QVQLVESGGGLVQAGGSLRLSCAASGFTFYLYAMGWYRPAPGKERELVAAITYSAGSTYYADSVKGRFTISRDNEKNTVYLQMNSLKPEDTAVFSCAKRGHYRAWGGGGYWGQGTQVTVSS	low polyreactivity
QVQLVESGGGLVQAGGSLRLSCAASGFTFYLYGMGGYRQAPGKERELVAAIRSGGSTNYADSVKGRFSISRDNAKNTVYLQMNSLKPEDTAVYYCATDIHSVHNNRDKPDYDYWGQGSQVTVSS	low polyreactivity
QVQLVESGGGLVQAGGSLRLSCAASGFTFYLYTMGWYRQAPGKERQLVAAISGSGGSTYYADSVKGRFTISRDNAKITVYLQMNSLKPEDTAVYYCAASPVRVGKVIDRRDYWGQGTQVTVSS	high polyreactivity
QVQLVESGGGLVQAGGSLRLSCAASGFTFYLYVMGWYRQAPGTEREFVAAITGSGTSTYYADSVKGRFTISRDNAKNTVYLQMNSLKPEDTAVYYCNAKRDRYFYTVKYDYWGQGTQVTVSS	low polyreactivity
QVQLVESGGGLVQAGGSLRLSCAASGFTFYPNAMGWYRQAPGKERELVAAISRSGSSTYYADSVKGRFTISRDNAKNTVYLQMNSLKPEDTAVYYCNRYGRQYDFYYWGQGTQVTVSS	high polyreactivity
QVQLVESGGGLVQAGGSLRLSCAASGFTFYPNTMGWYRQAPGKERELVAAISSSGGRTYYADSVKGRFTISRDNAKNTVYLQMNSLKPEDTAVYYCNAAKWLTSGGLDYWGLGTQVTVSS	high polyreactivity
QVQLVESGGGLVQAGGSLRLSCAASGFTFYPYAMGWYRQAPGKERELVAAISNGDSTHYADSVKGRFTISRDNAKNTVYLQMNSLKPEDTAVYYCAAVRGYPSRITSYVYTYGYWGQGTQVTVSS	low polyreactivity
QVQLVESGGGLVQAGGSLRLSCAASGFTFYPYAMGWYRQAPGTERELVAAIRGSGGSTHYADSVKGRFTISRDNAKNTVYLQMNSLKPEDTAVYYCAARIRGYRQYEYYYWGQGTQVTVSS	high polyreactivity
QVQLVESGGGLVQAGGSLRLSCAASGFTFYRNAMGWYRHAPGTERELVAAISWSGDSTYYADSVKGRFTISRDNAKNTVYLQMNSLKPEDTAVYYCAKERYFYYPWVTTYTSNYWGQGTQVTVSS	low polyreactivity
QVQLVESGGGLVQAGGSLRLSCAASGFTFYRNAMGWYRQAPGKERELVARIRGTGGRTYYADSVKGRFTISRDNAKNTVYLQMNSLKPEDTAVYYCNVGRGYSFANGDYWGQGTQVTVSS	high polyreactivity
QVQLVESGGGLVQAGGSLRLSCAASGFTFYRNPMGWYRQAPGKERELVAAISARGVSTYYADSVKGRFTISRDNAKNTVYLQMNSLKPEDTAVYYFSAVNYIYTGGGTYYYWGQGTQVTVSS	high polyreactivity
QVQLVESGGGLVQAGGSLRLSCAASGFTFYRYAMGWYRPAPGKERELVAAITRVGSTYYADSVKGRFTISRDNAKNTVYLQMNSLKPEDTAVYYCNARGTVPWYGYDYWGQGTQVTVSS	high polyreactivity

Sequence	polyreactivity (PSR sort gate)
QVQLVESGGGLVQAGGSLRLSCAASGFTFYRYAMGWYRQAPGKERELVAAINWSGVSTYYADSVKGRFTISRDNAKNTVYLQMNSLKPEDTAVYYCAADTYAGYNGNYWGQGTQVTVSS	high polyreactivity
QVQLVESGGGLVQAGGSLRLSCAASGFTFYRYAMGWYRQAPGKERELVAAISSSGGTTYYADSVKGRFTISRDNAKNTVYLQMNSLKPEDTAVYYCAARGWPTWGWGYDYWGQGTQVTVSS	high polyreactivity
QVQLVESGGGLVQAGGSLRLSCAASGFTFYRYAMGWYRQAPGKERELVAAISWRGTSTYYADSVKGRFTISRDNAKNTVYLQMNSLKPEDTAVYYCAAPRNFGPYTSPRQPLYNYWGQGTQVTVSS	high polyreactivity
QVQLVESGGGLVQAGGSLRLSCAASGFTFYRYAMGWYRQAPGKERELVAAITNGGGTYYADSVKGRFTISRDNAKNTVYLQMNSLKPEDTAVYYCAAKSRLPTQGLGIYYWGQGTQVSVSS	high polyreactivity
QVQLVESGGGLVQAGGSLRLSCAASGFTFYRYAMGWYRQAPGKERELVAAITRTGGSTYYADSVKGRFTISRDIAKNTVYLQMISLKPEDTAVYYCAARVHGTGTLKYPNYYWGQGTQVTVSS	high polyreactivity
QVQLVESGGGLVQAGGSLRLSCAASGFTFYRYAMGWYRQAPGKERELVAAITSGGDTYYADSVKGRFTISRDNAKNTVYLQMNSLKPEDTAVYYCAAAPRYGYGLASDSIFDYWGQGTQVTVSS	high polyreactivity
QVQLVESGGGLVQAGGSLRLSCAASGFTFYRYAMGWYRQAPGKERELVAAITWSGGSTYYADSVKGRFTISRDNAKNTVYFQMNSLKPEDTAVYYCAASRWIFQVNDYDYWGQGTQGTVSS	high polyreactivity
QVQLVESGGGLVQAGGSLRLSCAASGFTFYRYAMGWYRQAPGKERELVAALSGSGGSTYYADSVKGPFTISRDNAKTTVYLQMNSLNPEDTAVYYCNTVWFYGAKYDYWGQGTQVTVSS	high polyreactivity
QVQLVESGGGLVQAGGSLRLSCAASGFTFYRYAMGWYRQAPGKERELVARISWSGGSTYYADSVKGRFTISRDNAKNTVYLQMNSLKPEDTAVYYCNARRLFESWKYDYWGQGTQVTVSS	high polyreactivity
QVQLVESGGGLVQAGGSLRLSCAASGFTFYRYGMGWYRQAPGKERELVAAINNDGTTNYADSVKGRFTISRDNAKNTVYLQMNSLKPEDTAVYYCAADYYRGRYSSRYDYWGQGTQVTVSS	low polyreactivity
QVQLVESGGGLVQAGGSLRLSCAASGFTFYRYVMGWYRQAPGKERELVAAISWNGGRTYYADSVKGRFTISRDNAKNTVYLQMNSLKPEDTAVYYCAAVPGSRSYGGDYWGQGTQVTVSS	high polyreactivity
QVQLVESGGGLVQAGGSLRLSCAASGFTFYRYVMGWYRQAPGTERELVAAITGGGRTYYADSVKGRFTISRDNAKNTVYLQMNSLKPEDTAVYYCNKAVPAWGLFDYWGQGTQVTVSS	low polyreactivity
QVQLVESGGGLVQAGGSLRLSCAASGFTFYSYAMGWYRQAPGKERELFAAITQSGGSTYYADSVKGRFTISRDNAKNTVYLQMNSLKPEDTAVYYCAADIYNDYDYGYYYWGQGTQVTVSS	low polyreactivity
QVQLVESGGGLVQAGGSLRLSCAASGFTFYSYAMGWYRQAPGKERELVAAISRSGGSTRYADSVKGRFTISRDNAKNTVYLQMNSLKPEDTAVYYCNAGKYRAYDYWGQGTQVTVSS	high polyreactivity
QVQLVESGGGLVQAGGSLRLSCAASGFTFYSYAMGWYRQAPGKERELVASISQSGGRTYYADSVKGRFTISRDNAKNTVYLQMNSLKPEDTAVYYCARQRSYGRSSYSYGYDYWGQGTKVTVSS	high polyreactivity
QVQLVESGGGLVQAGGSLRLSCAASGFTFYTFAMGLYRQAPGKERELVASITNGGGTYYADSVKGRFTNSRDNAKNTVYLQMNSLKPEDTAVFYCARRVYYWGRYKDEYNYWGQGTQVTVSS	high polyreactivity
QVQLVESGGGLVQAGGSLRLSCAASGFTFYWYAMGWYRQAPGKERELVAAISTSDTSTYADSVKGRFTISRDNAKNTVYLQMNSLKPEDTAVYYCNRRQYYYYGTSRYNYWGQGTQVTVSS	low polyreactivity
QVQLVESGGGLVQAGGSLRLSCAASGFTFYWYAMGWYRQAPGKERELVATINWRGDTYYADSVKGRFTISRDNAKNTVYLQMNSLKPEDTAVYYCAATKRLAPRPLRLGYGSYNFCGQGTQVTVSS	high polyreactivity
QVQLVESGGGLVQAGGSLRLSCAASGFTFYYNAMGCYRQAPGKERELVASISSNGTSTYYADSVKGRFTISRDNAKNTVYLQMNSLKPEDTAVYYCNVDIFDPRTYDYWGQGTQVTVSS	low polyreactivity
QVQLVESGGGLVQAGGSLRLSCAASGFTFYYNAMGWYRQAPGKERELVASISRGTSTNYADSVKGRFTISRDNAKNTVYLQMNSLKPEDTAVYYCAAKSYSDYDYWGQGTQVTVSS	low polyreactivity
QVQLVESGGGLVQAGGSLRLSCAASGFTFYYNAMGWYRQAPGKERELVSIRFRGGNTYYADSVKVRFTISRDNAKNTVYLQMNSLKPVDTAVYYCNADDRVSTYVDFDYWGQGTQVTVSS	low polyreactivity
